Measurements from patent US20190381184A1.

Columns and labels:
[1] = target: CXCL12; assay: Bio-Layer Interferometry; CXCL12 immobilized on AR2G biosensor, different concentrations of CXCL12 trap
[2] = target: CXCL12; assay: Bio-Layer Interferometry (BLI)
[3] = target: CXCL12; assay: cell-based or functional assay
[4] = target: CXCL12; assay: Bio-Layer Interferometry, CXCL12 immobilized on the AR2G biosensor, CXCL12 trap at 500, 250 and 125 nM

Kd [1]: 4 nM | Kd [2]: 4 nM | invasion of CT-26 FL3 cells stimulated with CXCL12 (100.0 ng/ml) [3]: 12 µg/mL | migration of CT-26 FL3 cells stimulated with CXCL12 (100.0 ng/ml) [3]: 8 µg/mL | one-half maximal inhibition [ND50] against biological active CXCL12 (100 ng/ml) in vitro [3]: 120 nM | one-half maximal inhibition [ND50] of CT-26 FL3 cell migration stimulated with CXCL12 (100 ng/ml) [3]: 120 nM | Kd [4]: 4.1 nM | koff [4]: 3.64e-05 s⁻¹ | kon [4]: 8850 M⁻¹ s⁻¹
B1: CXCL12 trap (engineered VH-linker-VL fusion protein, expressed in and purified from 293T cells) (scFv, V domains shown, not shown: small tags and cut ends)
VH: EVQLVESGGGLVQPGGSLRLSCAASGFSLTVYSVHWVRQAPGKGLEWVGALWGSGGTEYNSNLKSRFTISRDTSKNTVYLQMNSLRAEDTAVYYCARDQGLNYGSLFDYWGQGTLVTVSS
VL: DIQMTQSPSSLSASVGDRVTITCRASESISYSLSWYQQKPGKAPKLLIYNAVKLESGVPSRFSGSGSGTDFTLTISSLQPEDFATYYCKQYWNTPFTFGQGTKVEIKR
modifications: flexible linker; C-terminal E tag, His6 tag
